This passage reports stoichiometry N results from article PMC10478762.

This test has as its target NADPH-dependent imine reductase from Ajellomyces dermatitidis (Ajellomyces dermatitidis). The experiment in a line: crystal structure; three crystal forms, sitting drop, 298 K, protein at 40 mg/ml in 50 mM Tris-HCl pH 7.5, 300 mM NaCl; data set 1 P3(1)21 with NADPH4 (one dimer in the asymmetric unit), data set 2 C2(1) with NADP+ (nine molecules, four and a half dimers), data set 3 P3(1)21 with NADP+ and 2,2-difluoroacetophenone (half-dimer, partner by crystal symmetry).

For “NADPH-dependent imine reductase from Ajellomyces dermatitidis (enzyme)”, the stoichiometry N – broadly, a count of units in the complex or per binding partner – was determined as 2.
